Test results from article PMC5296908.

Biological target: ADAMTS17-PCD (human)
Experiment: SPR; ADAMTS17-PCD (3300 RU) or ADAMTS17-AD (2530 RU) amine-coupled to a CM5 chip, BIAcore 3000; analytes flowed at 20 μl/min; 25 °C; TBS with 2 mM CaCl2 and 0.005% SP20; 1:1 stoichiometry assumed

Kd: 1.4 µM
Substance: ADAMTS17-PCD (domain or fragment)
